According to article PMC8041999:

B1: FLAG-tagged KIR2DL3, full-length, wild type, on 293T cells [human] / HLA-C*03:04-GL9 tetramer (phycoerythrin-conjugated) [modified: biotin (enzymatically, with biotin ligase)] [human] (parent)
chain 1: HEGVHRKPSLLAHPGPLVKSEETVILQCWSDVRFQHFLLHREGKFKDTLHLIGEHHDGVSKANFSIGPMMQDLAGTYRCYGSVTHSPYQLSAPSDPLDIVITGLYEKPSLSAQPGPTVLAGESVTLSCSSRSSYDMYHLSREGEAHERRFSAGPKVNGTFQADFPLGPATHGGTYRCFGSFRDSPYEWSNSSDPLLVSVTGNPSNSWPSPTEPSSETGNPRHLHVLIGTSVVIILFILLLFFLLHRWCCNKKNAVVMDQEPAGNRTVNREDSDEQDPQEVTYAQLNHCVFTQRKITRPSQRPKTPPTDIIVYTELPNAEP
chain 2: not shown
chain 3: not shown
chain 4: GAVDPLLAL
B2: FLAG-tagged KIR2DL2, full-length, wild type, on 293T cells [human] / HLA-C*03:04-GL9 tetramer (phycoerythrin-conjugated) [modified: biotin (enzymatically, with biotin ligase)] [human] (parent)
chain 1: HEGVHRKPSLLAHPGRLVKSEETVILQCWSDVRFEHFLLHREGKFKDTLHLIGEHHDGVSKANFSIGPMMQDLAGTYRCYGSVTHSPYQLSAPSDPLDIVITGLYEKPSLSAQPGPTVLAGESVTLSCSSRSSYDMYHLSREGEAHECRFSAGPKVNGTFQADFPLGPATHGGTYRCFGSFRDSPYEWSNSSDPLLVSVIGNPSNSWPSPTEPSSKTGNPRHLHILIGTSVVIILFILLFFLLHRWCSNKKNAAVMDQESAGNRTANSEDSDEQDPQEVTYTQLNHCVFTQRKITRPSQRPKTPPTDIIVYAELPNAESRSKVVSCP
chain 2: not shown
chain 3: not shown
chain 4: GAVDPLLAL
B3: FLAG-tagged KIR2DL3, full-length, wild type, on 293T cells [human] / HLA-C*07:02-RL9 tetramer (phycoerythrin-conjugated) [modified: biotin (enzymatically, with biotin ligase)] [human | not stated] (parent)
chain 1: B1 chain 1
chain 2: not shown
chain 3: not shown
chain 4: RYRPGTVAL
B4: FLAG-tagged KIR2DL2, full-length, wild type, on 293T cells [human] / HLA-C*07:02-RL9 tetramer (phycoerythrin-conjugated) [modified: biotin (enzymatically, with biotin ligase)] [human | not stated] (parent)
chain 1: B2 chain 1
chain 2: not shown
chain 3: not shown
chain 4: RYRPGTVAL

Variants of: B1
Assay: flow cytometry, HLA tetramer staining of transfected 293T cells
Conditions: with HLA-C*03:04-GL9 tetramer (phycoerythrin-conjugated) [modified: biotin (enzymatically, with biotin ligase)] [human]; percentage tetramer+ normalised to percentage FLAG+; read off a plot

Row | ratio to parent | Variant
1 | 0.07 | chain 1 F181A

Variants of: B2
Assay: as above
Conditions: with HLA-C*03:04-GL9 tetramer (phycoerythrin-conjugated) [modified: biotin (enzymatically, with biotin ligase)] [human]; percentage tetramer+ normalised to percentage FLAG+; read off a plot

Row | ratio to parent | Variant
2 | 0.05 | chain 1 F181A

Variants of: B3
Assay: as above
Conditions: with HLA-C*07:02-RL9 tetramer (phycoerythrin-conjugated) [modified: biotin (enzymatically, with biotin ligase)] [human | not stated]; percentage tetramer+ normalised to percentage FLAG+; read off a plot

Row | ratio to parent | Variant
3 | 0.06 | chain 1 F181A

Variants of: B4
Assay: as above
Conditions: with HLA-C*07:02-RL9 tetramer (phycoerythrin-conjugated) [modified: biotin (enzymatically, with biotin ligase)] [human | not stated]; percentage tetramer+ normalised to percentage FLAG+; read off a plot

Row | ratio to parent | Variant
4 | 0.02 | chain 1 F181A
